T1: ZNF143 DBD (UniProt P52747 237-440)
T1 sequence: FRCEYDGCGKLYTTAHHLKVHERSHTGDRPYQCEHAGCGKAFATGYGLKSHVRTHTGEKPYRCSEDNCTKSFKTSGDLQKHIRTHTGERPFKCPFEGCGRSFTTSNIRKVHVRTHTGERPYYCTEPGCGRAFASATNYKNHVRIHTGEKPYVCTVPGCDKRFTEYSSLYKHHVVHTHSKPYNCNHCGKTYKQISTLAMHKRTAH

B1: mut SBS/B- (dsDNA)
DNA 1: CGATTACCATGCACCAGGACAGG
DNA 2: CCTGTCCTGGTGCATGGTAATCG
B2: mut SBS/C- (dsDNA)
DNA 1: GTTTTTAAAACGTGTGCATTATTCTCC
DNA 2: GGAGAATAATGCACACGTTTTAAAAAC
B3: SBS/C (dsDNA)
DNA 1: TTTTACCCAGTGTGCATTATTCTCC
DNA 2: GGAGAATAATGCACACTGGGTAAAA
B4: SBS/A (dsDNA)
DNA 1: CAGCCCAATGGAAGCTGGGGGCG
DNA 2: CGCCCCCAGCTTCCATTGGGCTG
B5: SBS/B (dsDNA)
DNA 1: TGTCCTGGTGCATGGTGGTCGGA
DNA 2: TCCGACCACCATGCACCAGGACA

Biological target: T1, ZNF143 DBD
Assay: EMSA; 20 fmol 32P probe; 4% native PAGE in 0.25x TBE; competition: 20 min preincubation at room temperature, 10 uL; buffer as in ref 33 (not given); competitor excess 200-fold (Methods) or 1000-fold (Fig 2E legend)
Conditions: protein: recombinant, blunt

Row | Binder | binding result (label: 5' 32P) | binding result
1 | B1 | no binding | –
2 | B2 | no binding | –
3 | B3 | – | binds
4 | B4 | no binding | –
5 | B5 | – | binds

— PMC3936768, “Transcription factor abundance controlled by an auto-regulatory mechanism involving a transcription start site switch”
